Measurements taken from the supplement of paper PMC9170038.

System: K4 kissing-loop RNA reporter
Assay: apparent KD of K4 kissing-loop reporter; higher = weaker reporter binding
Conditions: Eterna round: R107
Description: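 RNA-MaP round R107: designed RNA switches with theophylline, tryptophan, arginine or FMN aptamers are transcribed on-chip within common flanks. They are titrated with a labelled K4 kissing-loop RNA reporter in RNA-MaP buffer (100 mM Tris pH 7.5, 80 mM KCl, 4 mM MgCl2), without ligand or with the indicated ligand. Median apparent KD per design.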

[1] = input ligand: theophylline 20 uM
[2] = input ligand: tryptophan 2.4 mM
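Also: bound reporter read as fluorescence of individual clusters on recovered sequencing chips by microscopy, with normalized cluster intensities fitted with a binding model.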

Sequence | apparent KD of K4 kissing-loop reporter (input ligand: FMN 200 uM) [nM] | apparent KD of K4 kissing-loop reporter (input ligand: arginine 13.2 mM) [nM] | apparent KD of K4 kissing-loop reporter (input ligand: none) [nM] | apparent KD of K4 kissing-loop reporter [1] [nM] | apparent KD of K4 kissing-loop reporter [2] [nM]
GCAGUGAUGUUGCGGAUGUACAGUGGCGUGCGAGGACCGGUACGGCCGCCACUCGUACAGAGCCAGCUAAUACAUCGAUAGGUGA [whbob_SS_Tryp_A_m6] | 289 | 177 | 239 | 296 | 322
AGUGGACGUGUUCGGAGUGAUGUUCCGGAUACCAGACACGAAAGUGUCCCUUGGCAGCCGGAGUGAUGUUCCGGCGUUCACUAAA [Omei KL Theo A Exc B v2] | 646 | 311 | 538 | 533 | 439
ACGUGCACUAGUGAUGUUGGAAAAUAGGAAGGAGCGGGCGAAAGCCCAGGUAGGUCGCCUAAUAGCACGAGCCACGAAAGUGGCA | 376 | 514 | 645 | 774 | 522
CAGACAUGCGGUAGGUUCAAGCGCUGGGAAGGAGCGCAGAUGACUGCAGGUAGGUCGCCCAGUGAUGUUGGGCUUUCCACCUAUG [Onbeenbi] | 110 | 122 | 120 | 150 | 107
GCCGUACGCAUGGAUACCAGCACUCGUUGAGUGAUGUUCACGAGGUGGUAUUCGACGGGCUGCCCUUGGCAGCCAUGCGUACGGC | 111 | 87.3 | 102 | 99 | 121
UUAAGGGUCCGAGGAUAUCUCCCAGUGAUGUUGGGCGAUACGGCCCUUAAGACUAAUGGUUGAAGGAGAGAAGGCGGCUCCCGAU [Edmaisle] | 146 | 120 | 128 | 136 | 112
GCCGUACGCAUGGAUACCAGCAUCGACUCAUAUACAGUGAUGUUGUGUAAUGACCUCAUUUGCCCUUGGCAGCCAUGCGUACGGC | 471 | 291 | 620 | 857 | 800
GCAGUGAUGUUGCGGAUGUACAGUGGCGUGCGAGGACCGGUACGGCCGCCACUCGUACAGAGCCAGCUAAUACAUCGAUUGGUGA [whbob_SS_Tryp_A_m7] | 387 | 176 | 206 | 157 | 212
UUUUUGGUUUAGAGUGAUGUUCCUUGUAAUCGAGGACCGGUACGGCCGCCACUCGAUUAGAAAAGAAAAGAAAAGAGUGAUGUUU [BDazzled - #2 SS Tryptophan A] | 347 | 229 | 299 | 248 | 243
AAAUAUUCGAGUGAUGUUCGAAUAAUAUCAGAGGAUAUGCAUAAAAGCAGAAGGCUGUAUUACUUUUUGUUACGAAAUUUUAUAA [JR_SSFMNA_Sub020] | 111 | 115 | 102 | 118 | 115
GGUUCCUCAGUGAUGUUGAGGUGACCUCGGCAGGAUAUAGGCAUUACUAGAAGGGCCAAAUGAACCCUGUCCAGCGGCACAGGGA [Arleorbile] | 147 | 213 | 331 | 298 | 252
GCAGUGAUGUUGCUGAUGUACAGUGGGAUACGAGGACCGGUACGGCCGCCACUCGUACAGAACUUAUUAAUACAUCGAUAAGUGA [XIV] | 534 | 612 | 710 | 643 | 687
CCUGCGGCUUCCGGCGGGCCCGAUUUAUAAAAGGAUAUGUGCGUACACAGAAGGUUUAACGAGGGACCGAGAGUGAUGUUCUCCU [theeternabot_sameState_KL_FMN_A_33] | 585 | 174 | 316 | 370 | 418
AGUGAUGUAUGGCGGUGUGUCGCUUAAAAUCAGGAUAUAUAAACAAAUAGAAGGGAUGGCGGAGUGAUGUUCCGCCGGCCGCCAU [FMN A Exl V2] | 127 | 118 | 134 | 136 | 128
GCAAACCUCAGUGAUGUUGAGUAAUCGGAAGGAGCGCGUGAAAACGCAGGUAGGUCGCCGAUACAUGAAGUAUCUUCGUGUUUGC [Arginine A K4 23] | 284 | 365 | 354 | 380 | 274
AUUCGUUUAUGUGAUACCAGACUUUGCAGUGAUGUUGCAUUAAUUAAAGAUGUUUAGUUUGUCCCUUGGCAGCACUAUUUAUUUA [JR_SSTheophyB_Sub002] | 43.1 | 84.4 | 49.6 | 83.3 | 38.9
AGUUUAGAGUGACUCGAUAAGAGUCACAAACGAGGACCGGUACGGCCGCCACUCGAAAUAACGAGAGUGAUGUUCUCGCUGGGCA [FiskerMod 3 - Jieux - Same State Tryptophan A] | 332 | 377 | 458 | 384 | 126
UUCCUCAUGGUAGUGAUGUUGCCGCCCGAUACCAGUCGACGUAUUGACCCUUGGCAGCGGAUCAAGUCCGAUUAAUUUUUUGGUC [theeternabot_sameState_KL_Theo_A_5] | 216 | 190 | 217 | 320 | 196
AAUUAAGUGACGGCCGCCACUAGGGUGAUUUUUUUGUUUGAGUGAUGUUUUGAUGUUUGAUUUUGUAGGACCGGGUUAGGUGAUG [juhmullin] | 332 | 295 | 426 | 404 | 252
UCGAUAGCCAGCGAUACCAGCCCAGUGAUGUUGGGCACAUGGUUGCGGGAAAUCCUAUUGGGCCCUUGGCAGCGCUUGCAUGGGU [Anbixeza] | 127 | 118 | 119 | 107 | 110
UACUAUAGUGAUGUUAUAGAUAAAACAGAUACCAGUGUAACAUAACACCCUUGGCAGCUGAUAAGGGAAAGUAUAAAUGUGUAUU [AstrosSSTHe-A#2newdesignED] | 207 | 188 | 199 | 208 | 186
AAUAAAAUCACGGCCGCCACUGAUACUAAUAUUAGCAGUGAUGUUGCUAUGUAUAAUUUAUUAAACAGGACCGGGUGAAUAUUUA [JR_ExcTryptoB_Sub015] | 159 | 129 | 126 | 150 | 114

Sequence | apparent KD of K4 kissing-loop reporter (input ligand: FMN 200 uM) [nM] | apparent KD of K4 kissing-loop reporter (input ligand: arginine 13.2 mM) [nM] | apparent KD of K4 kissing-loop reporter (input ligand: none) [nM] | apparent KD of K4 kissing-loop reporter [1] [nM] | apparent KD of K4 kissing-loop reporter [2] [nM]
UUACAGCCCAGUGAUGUUGGGUAGCGGCGGCGAGGACCGGUACGGCCGCCACUCGGCGCACAGGCGGAGUGAUGUUUUGCUUAAA [Same State Tryptophan A GF 11] | 718 | 590 | 894 | 927 | 476
UUGCCCGAUGGAGAUACCAGCAGUUGUGCAGUGAUGUUGCACAAGUACUCGCUCCAUUGCUGCCCUUGGCAGCUCCCGGCGAAAA [Reoraren] | 95.9 | 79.7 | 84.7 | 92.4 | 81.3
UGUUUUUACUGAAGGAGCGGCAAUUGAUACGUAGAUAUAGUGAUGUUAUAUAAGAUAGAGAGCCAGGUAGGUCGCAGAUUUUUUC [ExArgB.Y] | 179 | 201 | 164 | 172 | 136
GGUGCUGUCUGUGCCGCCCUCCUCGUCCCUCGAGGACCGGUACGGCCGCCACUCGAGUGAUGUUCGGGUAGCCCUCCCUGCCAGC [BDazzled - #21 Exc. Tryptophan A] | 493 | 402 | 548 | 438 | 492
AGUGAUGUGGGAAGGAGCGCUACAUCACUUCAGUGAUGUUGAAGUGAUGAAUUAGUGAUGUAGCAGGUAGGUCGCCUAGAUGUUA [KL-XARG-B12] | 76.3 | 38.5 | 58.3 | 60.8 | 51.3
AUGCGUGAUGCUCAAAGAGUAUCACCCGAUACCAGUAUGGAAACAUACCCUUGGCAGCGGGUAACUGCCCAGUGAUGUUGGACGC [Theophylline A K4 10] | 286 | 160 | 242 | 288 | 234
GCAGGACGAUGAGGAGGAUGAAUUACUGAAGGAGCGCAUAUGGUUGCAGGUAGGUCGCGGUGAACAAGUAUAGUGAUGUUAUAUC [SSArgA.R] | 755 | 179 | 138 | 471 | 1050
UGUCAUUGGUCGGCCGCCACUAUAAUAAAAGAGUGAUGUUCUAAAAGACGGACAAAAGUCUGUCGUAGGACCGGGACCGAUGACU [TrypBS 26 #SwitchBubble #StaticStem] | 1100 | 551 | 805 | 916 | 455
UAAUUUAUGUCUUUAAUAUAAUAAUCAGAUACCAGUGAUUUAUGACACCCUUGGCAGCUGUAUAGAGUGAUGUUCUUAUACAUAA [JR_Nu_ExcTheophyA_Sub020] | 388 | 504 | 483 | 547 | 294
UGAUUUAACUGAAGGAGCGGCAAUUGAUAAGGAAAUAUAGUGAUGUUAUAUAAGAGAGAGAGCCAGGUAGGUCGCAGAGGGAGGA [ExArgB.H] | 182 | 105 | 110 | 154 | 145
UCCUAGGCUCGAAAGAGCCUAGGAUUAUCUCAGGAUAUCCGGAAACGGAGAAGGGAGAAACUAGUGAUGUUAGGGAUUCCCUCUU | 421 | 110 | 145 | 135 | 126
AAUGUACAAGUGAUGUUUGUACUUUCCGAAGGAGCGUCUAAUAAGACAGGUAGGUCGCGGAUUCUCUUAAUUAUCAGGUCAUUAA [JR_ExcArginiA_Sub017] | 89.6 | 81.3 | 86.2 | 80.6 | 81.6
AAACAUCACUGGGAGUGAUGUUCUCAGUGACGAGGACCGGUACGGCCGCCACUCGCGAGAGAUUUAGUCUAGUAUUGACUGCAUU [Excl Tryptophan A V11] | 294 | 273 | 304 | 353 | 358
AUUCGUUUAUGUGAUACCAGACUUUGCAGUGAUGUUGCAUUAAUUAUUGAUGAUUAGUUUGUCCCUUGGCAGCACUAUUUAUUUA [JR_SSTheophyB_Sub003] | 54.6 | 105 | 63.8 | 104 | 47.7
UGGUUAAGCAGUGAUGUUGCAAGUGAUGAUACCAGUUAAGAAGAGAACCCUUGGCAGCAUAAAGUGCGCUCUGAUGAGUGUGCUU [whbob_SS_Theo_A_w55] | 165 | 130 | 146 | 176 | 165
UGUUAUGUAUCAGGAUAUUAGUGAUGUUUGUUUAUGUUAGUGAUGUUGAUAUUUGUUUUAUGUAUUUAAGAAGGGAUUGAGAUGU [dcdmullin] | 55.4 | 19.8 | 45.1 | 27.7 | 50.9
UGUCAUUGGUCGGCCGCCACUUCAAGGUCAAAGACCAGAGUGAUGUUCUUGCACAAAGUGCUUAGAAGGACCGGGACCGAUGACU [TrypBS 13 #SwitchBubble #K4Middle] | 738 | 467 | 625 | 413 | 622
GCUAUGGUAGGAAGGAGCGCUUGCUCGGUCAUAUGAGUGAUGUUCGAGACUGAGCAUUUAUAGCAGGUAGGUCGCCUACUAUAGC [Arginine B K4 9] | 235 | 206 | 182 | 242 | 177
GUCCGGAAGGCGGCUUCACGACCGUGGUGGGAGGAUAUGUCUAAGGACAGAAGGCCCAGUGAUGUUGGGCUUUAGGAGAGCCAUA [Ragele] | 310 | 128 | 143 | 116 | 118
UCCUGCACGGUCGAUACCAGCCUAUGCAGUGAUGUUGUAAGGUUGUCACUUUAGUACGAAGGCCCUUGGCAGCGAUGAUGUAACA [theeternabot_exclusion_KL_Theo_B_41] | 601 | 470 | 604 | 504 | 464
GUACAUUGGAAACAAGAACAAAUAACCGAAGGAGCGCGUGAAAACGCAGGUAGGUCGCGGAAGCAGUGAUGUUGCAUUAGAGAUC [Same State Arginine A GF 16] | 79.2 | 103 | 61.1 | 106 | 60.3
AGGAGCGUGCGAUGAAAAUCGCACGCUCCUCGAGGACCGGUACGGCCGCCACUCGCUCGCGCCGAGUGAUGUUCGGCCGGCGAAC [#2 Same State - Tryptophan A Attempt #8 (HarryS)] | 194 | 180 | 234 | 269 | 966
